Laboratory results taken from US20170320928A1 (WISCONSIN ALUMNI RESEARCH FOUNDATION, published 2017).
Like-named read-outs stand apart in the source and are kept apart here. Blank lines part the entries; values can stand above or below the binder they belong to. Square brackets hold non-standard residues; d marks the D form. Primed or numbered codes have the meaning given here. Ends that are not written are not given here. ACPC = cyclic β-residue replacing an α-residue; APC = 3-aminopyrrolidine-4-carboxylic acid; ACPC″ = not defined here; APC″ = not defined here; Aib = CC(C)(N)C(=O)O

Columns and labels:
Test in all cases: cell-based or functional assay
[1] = target: T1, human GLP-1 receptor (human, UniProt P43220 24-463)
[2] = target: T1, human GLP-1 receptor; remark: listed apart in the source
[3] = target: T1, human GLP-1 receptor; remark: listed apart in the source

cAMP production, AVERAGES at M Concentrations: -7 [1]: 100
cAMP production, AVERAGES at M Concentrations: -8 [1]: 99.2
cAMP production, AVERAGES at M Concentrations: -9 [1]: 42.8
cAMP production, AVERAGES at M Concentrations: -10 [1]: 18
cAMP production, AVERAGES at M Concentrations: -12 [1]: 5.69
cAMP production, AVERAGES at M Concentrations: -13 [1]: 5.69
EC50 nM, cAMP production in HEK293 cells [2]: > 100 nM
B1: α/β-peptide SEQ. ID. NO: 6 (peptide)
peptide: HAEGTFT[ACPC″]DVS[ACPC″]YLE[ACPC″]QAA[ACPC″]EFI[ACPC″]WLV[APC″]GRG-NH2
modifications: reading uncertain

EC50 (nM), cAMP production [3]: > 100 nM
B2: SEQ. ID. NO: 13 (peptide)
peptide: HXEGTFTSDXSXYLEXQAAXEFIXWLVXGRG
modifications: C-terminal primary amide; non-natural residues are marked only by a key given as a drawing (CHEM-US-00002/00003), positions not readable in the text

EC50 (nM), cAMP production [1]: 3.2 nM
cAMP production, AVERAGES at M Concentrations: -7 [1]: 88.3
cAMP production, AVERAGES at M Concentrations: -8 [1]: 63
cAMP production, AVERAGES at M Concentrations: -9 [1]: 35
cAMP production, AVERAGES at M Concentrations: -10 [1]: 4.47
cAMP production, AVERAGES at M Concentrations: -11 [1]: 3.5
cAMP production, AVERAGES at M Concentrations: -12 [1]: 2.81
cAMP production, AVERAGES at M Concentrations: -13 [1]: 3.83
EC50 nM, cAMP production in HEK293 cells [2]: 3.2 nM
Max Response (% GLP-1 max), cAMP production [2]: 88 % GLP-1 max
B3: α/β-Peptide SEQ. ID. NO: 7 (peptide)
peptide: H[Aib]EGTFTSD[Aib]S[ACPC]YLE[ACPC]QAA[ACPC]EFI[ACPC]WLV[APC]GRG-NH2
